# In patent publication US20120282637A1 (Sanofi, published 2012):
# Residue numbers refer to the chain shown, from its start. Where “and” joins values, the source holds several entries; their conditions need not be identical. Identical values can stand only once.
# B1: 166 RAGE-1 (antibody, V domains shown)
# VH: QVQLQQSGPELVKPGTSVRISCKASGYTFTSYYIHWVKQRPGQGLEWIGWIYPGNVITNYHEKFKGKASLTADKSSSTAYMQLSSLTSEDSAVYFCAREDPFAYWGQGTLVTVSA
# VL: NIMMTQSPSSLAVSAGEKVTMSCKSSQSVLYSSNQKNYLAWYQQKPGQSPKLLIYWASTRESGVPDRFTGSGSGTDFTLTISSVQAEDLAVYYCHQYLSSYTFGGGTKLEIK
# notes: Anti-RAGE monoclonal antibody from a hybridoma, captured by anti-mouse Fc; also called LP08122; LP08122D
# B2: 56 RAGE-1 (antibody, V domains shown)
# VH: QVQLQQSGPELVKPGASVRISCKASGYTFTSYFIHWVKQRPGQGLEWIGWIYPGNVNTKYNEKFKDKATLTADKSSSTAYMQLSNLTSEDSAVYFCVRGQLGDYWGQGITLTVSS
# VL: DIVMTQSQKFMSTSVGDRVSVTCKASQNVGINVAWYQQKPGQSPKALIYSASYRYSGVPDRFTGSGSGTDFTLIISNVQSEDLAEYFCQQYNNYPRTFGGGTKLEIK
# notes: Anti-RAGE monoclonal antibody from a hybridoma, captured by anti-mouse Fc; also called LP08103; Protein 56 RAGE-1
# B3: 164 RAGE-1 (antibody, V domains shown)
# VH: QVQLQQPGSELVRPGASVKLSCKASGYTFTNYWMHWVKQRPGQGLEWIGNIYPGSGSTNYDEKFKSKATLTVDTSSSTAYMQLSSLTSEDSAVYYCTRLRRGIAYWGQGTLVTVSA
# VL: NIVMTQSPKSMSMSVGERVTLSCKASENVGTYVSWYQQKPEQSPKLLIYGASNRYTGVPDRFTGSGSATDFTLTISSVQAEDLADYHCGQSYTYPYTFGGGTKLEIK
# notes: Anti-RAGE monoclonal antibody from a hybridoma, captured by anti-mouse Fc; also called LP08106; Protein 164 RAGE-1
# B4: 253 RAGE-1 (antibody, V domains shown)
# VH: QVQLQQSGPELVKPGASVRISCKASGYTFTDYYIHWVKQRPGQGLEWIGWIYPGNVITKYNEKFKGKATLTADKSSSTAYMQLSSLTSEDSAVYFCARYDYDYAMDYWGQGTSVTVSS
# VL: DIVMSQSPSSLAVSVGEKVTMSCKSSQTLLYSSNQKNYLAWYQQKPGQSLKLLIYWASTRESGVPDRFAGSGSGTDFTLTISSVKAEDLAVYYCQQYFGYPYTFGGGTKLEIK
# notes: Anti-RAGE monoclonal antibody from a hybridoma, captured by anti-mouse Fc; also called LP08127
# B5: 326 RAGE-1 (antibody, V domains shown)
# VH: EVKLVESGGGLVKPGGSLKLSCAASGFAFSSYDMSWVRQTPEKRLEWVATISSGGSYTSYPDSVQGRFTISRDNARNTLYLQMSSLRSEDTALYYCASSQLPPYAMDYWGQGTSVTVSS
# VL: DIVMTQSQKFMSTSVGDRVSITCKASQNVGTAVAWYQQKPGQSPKLLIYSASNRYTGVPDRFTGSGSGTDFTLTISNMQSEDLADYFCQQYSSYPLLTFGAGTKLELK
# notes: Anti-RAGE monoclonal antibody from a hybridoma, captured by anti-mouse Fc; also called LP08137; Protein 326 RAGE-1
# B6: 158 RAGE-1 (antibody, V domains shown)
# VH: QIQLVQSGPELKKPGETVKISCKASGYTFTDYSMHWVKQAPGKGLKWMGWINTETGEPTYADDFKGRFAFSLETSASTAYLLINNLKTEDTATYFCARDYLYYYAMDYWGQGTSVTVSS
# VL: DVVLTQTPLSLPVNIGDQASISCKSTKSLLNSDGFTYLDWYLQKPGQSPQLLIYLVSNRFSGVPDRFSGSGSGTDFTLKISRVEAEDLGVYYCFQSNYLPLTFGGGTKVEIK
# notes: Anti-RAGE monoclonal antibody from a hybridoma, captured by anti-mouse Fc; also called LP08105
# B7: 240 RAGE-1 (antibody, V domains shown)
# VH: B6 VH with L82Q, T88N
# VL: B6 VL with N14S, R66S, L99F, K108T, V109L
# notes: Anti-RAGE monoclonal antibody from a hybridoma, captured by anti-mouse Fc; also called LP08108
# B8: 152 RAGE-1 (antibody, V domains shown)
# VH: DVQLQESGPDLVKPSQSLSLTCTVTGYSITSGYSWHWIRQFPGNKLEWMGYIHYSGSTNYNPSLKSRISITRDTSKNQFFLQLNSVTTEDTATYYCARGGDFAYWGQGTLVTVSA
# VL: DIVLTQSPASLAVSLGQRATISCRASKSVGTSDSSYMHWYQQKPGQPPKLLIYLASNLESGVPARFSGSGSGTDFTLNIHPVEEEDAATYYCQHSRELYTFGGGTKLEIK
# notes: Anti-RAGE monoclonal antibody from a hybridoma, captured by anti-mouse Fc; also called LP08104; Protein 152 RAGE-1
# B9: Control XT-M4 (antibody, V domains shown)
# VH: EVQLVESGGGLVQPGRSLKLSCVVSGFTFNNYWMTWIRQTPGKGLEWVASINNSGDNTYYPDSVKDRFTISRDNAKSTLYLQMNSLRSEDTATYYCTRGGDITTGFDYWGQGVMVTVSS
# VL: DIQMTQSPSSMSVSLGDTITITCRASQDVGIYVNWFQQKPGKSPRRMIYRATNLADGVPSRFSGSRSGSIYSLTISSLESEDVADYHCLEFDEHPLTFGSGTKVEIK
# Target: T1, RAGE V domain (UniProt Q15109 23-121, limits assumed)
# T1 construct: domain: V domain
# T1 sequence (Q15109 23-121 limits assumed): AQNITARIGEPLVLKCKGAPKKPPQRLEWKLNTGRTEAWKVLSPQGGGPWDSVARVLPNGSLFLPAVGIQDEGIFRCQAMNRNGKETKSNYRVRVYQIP
# Assay: domain mapping, Table 1
row,binding result,Binder
1,no binding,B1
2,no binding,B2
3,no binding,B3
4,no binding,B4
5,no binding,B5

# Target: T2, RAGE C2 domain (UniProt Q15109 235-327, limits assumed)
# T2 construct: domain: C2 domain
# T2 sequence (Q15109 235-327 limits assumed): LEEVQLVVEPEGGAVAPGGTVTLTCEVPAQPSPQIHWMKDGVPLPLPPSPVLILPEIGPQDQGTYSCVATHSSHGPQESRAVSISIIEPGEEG
# Assay: domain mapping, Table 1
row,binding result,Binder
1,no binding,B1
2,no binding,B6
3,no binding,B7
4,no binding,B4
5,no binding,B5
6,no binding,B8

# Target: T3, RAGE V-C1 domains (UniProt Q15109 23-233, limits assumed)
# T3 construct: domain: V-C1 domains
# T3 sequence (Q15109 23-233 limits assumed): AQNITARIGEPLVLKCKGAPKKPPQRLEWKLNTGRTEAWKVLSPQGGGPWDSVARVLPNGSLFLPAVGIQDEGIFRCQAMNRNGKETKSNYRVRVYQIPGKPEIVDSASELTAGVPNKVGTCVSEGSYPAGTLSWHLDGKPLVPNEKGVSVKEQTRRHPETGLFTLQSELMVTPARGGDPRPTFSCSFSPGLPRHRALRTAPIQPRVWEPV
# Assay: domain mapping, Table 1
row,binding result,Binder
1,no binding,B2
2,no binding,B3

# Target: T4, RAGE-Fc (human, UniProt Q15109 23-344, limits assumed)
# T4 construct: also called hRAGE; not shown: Fc part, detected with anti-hIgG Fc-specific conjugate
# T4 sequence (Q15109 23-344 limits assumed): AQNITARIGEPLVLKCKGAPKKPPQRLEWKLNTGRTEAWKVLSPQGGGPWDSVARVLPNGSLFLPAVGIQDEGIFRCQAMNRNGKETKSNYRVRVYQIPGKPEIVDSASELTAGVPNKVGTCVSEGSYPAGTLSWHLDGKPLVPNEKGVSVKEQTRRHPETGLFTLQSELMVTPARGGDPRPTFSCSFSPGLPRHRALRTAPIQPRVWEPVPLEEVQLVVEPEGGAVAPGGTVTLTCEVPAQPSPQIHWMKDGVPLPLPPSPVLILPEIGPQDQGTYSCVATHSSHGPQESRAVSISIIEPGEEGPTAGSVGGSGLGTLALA
# Assay: competition ELISA, RAGE-Fc binding to coated S100A6
# Description: (§1) For the S100A6 Competition ELISA Assay wells have been coated with S100A6 at 0.5 μg/well. Thereafter, RAGE-Fc at 10 μg/mL and competing mAb at 10 μg/mL have been pre-incubated at room temperature for 30 min. The mixture was transferred into S100A6-coated plates and incubated under agitation at room temperature for 2 hours. Bound RAGE-Fc was detected with anti-hIgG Fc-specific-POD using TMB (3, 3′, 5, 5′-Tetramethylbenzidine) at 450 nm.
# For this, coating with S100A6 was carried out as detailed above. RAGE-Fc at 10 μg/mL was incubetd with competing mAb (2-fold serial dilutions starting at 100 μg/ml at room temperature for 2 hours. Binding was detected by anti IgG Fc-specific antibody peroxydase conjugate using TMB1 component HRP at 450 nm.
row,IC50,Binder
1,8.33 mg/L,B1
2,1.16 µg/mL and 7.73 nM,B2
3,5.2 mg/L,B9
4,6.79 mg/L,B6
5,6.66 mg/L,B7

# Target: T5, sRAGE (V-C1-C2) lot LP08062 (human, UniProt Q15109 23-331, limits assumed)
# T5 construct: domain: V-C1-C2; also called Human RAGE; LP08062 (Rage)
# T5 sequence (Q15109 23-331 limits assumed): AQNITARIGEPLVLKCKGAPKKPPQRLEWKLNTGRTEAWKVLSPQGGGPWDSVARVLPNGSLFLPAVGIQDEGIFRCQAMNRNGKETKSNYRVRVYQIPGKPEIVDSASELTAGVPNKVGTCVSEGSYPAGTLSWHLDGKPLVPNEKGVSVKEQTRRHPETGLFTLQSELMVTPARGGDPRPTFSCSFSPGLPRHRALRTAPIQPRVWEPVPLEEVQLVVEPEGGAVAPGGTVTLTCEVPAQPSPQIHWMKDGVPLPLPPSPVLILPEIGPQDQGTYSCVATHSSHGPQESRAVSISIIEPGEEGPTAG
# Assay: SPR (Biacore), mAb captured on anti-mouse Fc, sRAGE 15 nM, Langmuir 1:1
# Description: The assay is based on a capture assay using immobilized anti-mouse Fc IgG on CM5 chip. For immobilization of anti-Fc antibody HBS-EP was used as running buffer. Standard amine coupling to a CM5 chip was carried out at a contact time of 11 min and a flow rate of 10 μl/min. 10 mM Sodium Acetate pH 5.0 was used as immobilization buffer. The protein concentration (anti-mouse Fc, Biacore BR-1008-38) was 100 μg/mL.
# For binding analysis SN anti-RAGE mAb diluted in running buffer at 1/10 (flow rate 5 μl/min) and sRAGE (V-C1-C2) lot LP08062 diluted in running buffer at 15 nM (flow rate 50 μl/min) was used as […], respectively (running buffer: HBS-P+BSA 12 mg/mL+CM Dextran 12 mg/mL and Regeneration solution: 10 mM Glycine pH 1.7). Langmuir 1:1 analysis was used as fitting model.
Kd [nM],koff [s⁻¹],kon [M⁻¹ s⁻¹],Binder
0.234,0.000758,3.24e+06,B1
1.87,0.00539,2.89e+06,B2
1.13,0.00203,1.8e+06,B3
0.629,0.00253,4.02e+06,B6
0.222,0.000769,3.47e+06,B7
0.512,0.00199,3.89e+06,B4
0.596,0.00171,2.87e+06,B5
0.687,0.00265,3.86e+06,B8

# Target: T4, RAGE-Fc
# Assay: competition ELISA against S100A6, mAb 10 µg/mL
# Description: as §1
row,inhibitory effect [%],Binder
1,> 20,B1
2,> 20,B2
3,> 20,B6
4,> 20,B7
5,> 20,B8

# Target: T4, RAGE-Fc
# Assay: competition ELISA, RAGE-S100B interaction
row,IC50 [nM],Binder
1,0.8,B1
2,1.37,B9
3,0.7,B6
4,0.8,B7
5,0.7,B4
6,0.6,B5

# Target: T4, RAGE-Fc
# Assay: competition ELISA, hRAGE-HMGB1 interaction
row,IC50,Binder
1,0.272 mg/L,B9
2,0.29 µg/mL and 1.39 nM,B6
3,0.31 µg/mL and 2.06 nM,B7

# Target: T4, RAGE-Fc
# Assay: competition ELISA, RAGE-HMGB1 interaction
row,IC50 [nM],Binder
1,1.79,B9
2,1.4,B6
3,2.1,B7

# Target: T4, RAGE-Fc
# Assay: competition ELISA, RAGE-S100A6 interaction
row,IC50 [nM],Binder
1,55.5,B1
2,7.7,B2
3,34.6,B9
4,45.3,B6
5,44.4,B7

# Target: rat sRAGE (rat, UniProt Q63495 23-341, limits assumed)
# Sequence (Q63495 23-341 limits assumed): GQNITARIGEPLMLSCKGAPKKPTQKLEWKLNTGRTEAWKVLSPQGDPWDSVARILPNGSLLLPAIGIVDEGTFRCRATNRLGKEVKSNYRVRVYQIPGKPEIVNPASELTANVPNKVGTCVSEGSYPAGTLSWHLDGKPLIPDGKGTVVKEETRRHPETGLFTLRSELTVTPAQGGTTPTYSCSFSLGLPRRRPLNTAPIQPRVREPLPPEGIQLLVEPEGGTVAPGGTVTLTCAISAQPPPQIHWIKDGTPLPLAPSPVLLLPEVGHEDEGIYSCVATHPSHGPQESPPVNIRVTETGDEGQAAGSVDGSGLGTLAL
# Assay: ELISA, O.D. 450 nm, one bar per species; plate format and antibody concentration not given
row,binding result,Binder
1,no binding (tested: not given),B1
2,no binding (tested: not given),B6
3,no binding (tested: not given),B7
4,no binding (tested: not given),B5

# Target: mouse sRAGE (mouse, UniProt Q62151 23-340, limits assumed)
# Sequence (Q62151 23-340 limits assumed): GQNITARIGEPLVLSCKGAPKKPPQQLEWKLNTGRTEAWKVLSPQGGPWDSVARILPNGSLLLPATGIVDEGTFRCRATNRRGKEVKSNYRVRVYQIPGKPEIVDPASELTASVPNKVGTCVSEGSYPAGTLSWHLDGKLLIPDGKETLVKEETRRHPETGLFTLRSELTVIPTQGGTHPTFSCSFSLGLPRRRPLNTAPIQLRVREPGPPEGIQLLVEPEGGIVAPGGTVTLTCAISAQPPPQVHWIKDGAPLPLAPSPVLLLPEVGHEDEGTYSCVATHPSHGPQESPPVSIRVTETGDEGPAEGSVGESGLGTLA
# Assay: as above
row,binding result,Binder
1,no binding (tested: not given),B1
2,no binding (tested: not given),B6
3,no binding (tested: not given),B7
4,no binding (tested: not given),B5

# Target: T4, RAGE-Fc
# Assay: competition ELISA, hRAGE-S100B interaction
row,IC50,Binder
1,0.128 mg/L,B1
2,0.208 mg/L,B9
3,0.109 mg/L,B6
4,0.123 mg/L,B7
5,0.108 mg/L,B4
6,0.097 µg/mL and 0.64 nM,B5

# Target: T4, RAGE-Fc
# Assay: competition ELISA, hRAGE-S100A6 interaction
row,maximum inhibitory effect [%],Binder
1,≤ 50,B1
2,≤ 50,B2
3,≤ 50,B6
4,≤ 50,B7
